Test results reported in the FLAb antibody collection (doi:10.7554/elife.23156).

B1: scFv; the commonest letter at each place (parent)
chain 1: EVKLDETGGGLVQPGRPMKLSCVASGFTFSDYWMNWVRQSPEKGLEWVAQIRNKPYNYETYYSDSVKGRFTISRDDSKSSVYLQMNNLRVEDMGIYYCTGSYYGMDYWGQGTSVTVS
chain 2: DVVMTQTPLSLPVSLGDQASISCRSSQSLVHSNGNTYLRWYLQKPGQSPKVLIYKVSNRFSGVPDRFSGSGSGTDFTLKISRVEAEDLGVYFCSQSTHVPWTFGGGTKLEIK

Key:
fluorescein = variants of: B1; experiment: Kd (Tite-Seq); settings: with fluorescein; format: scFv 4-4-20, heavy + light
[1] = variants of: B1; experiment: yeast surface expression (ratio to wild type); higher = more expressed; settings: format: scFv 4-4-20, heavy + light

Variant	Kd (fluorescein) [µM]	yeast surface expression [1]
chain 1 T28C W33L	≥ 10	0.742
chain 1 Y102H Y103C	3.94	0.682
chain 1 G100E D106H	≥ 10	0.289
chain 1 N35W V37Q	≥ 10	0.372
chain 1 Y32M M34Q	≥ 10	0.437
chain 1 S101M G109H	≥ 10	0.229
chain 1 V37Y	0.129	1.04
chain 1 D31T Y32G	0.0391	0.798
chain 1 F29E	≥ 10	0.778
chain 1 F29H	3.74	0.884
chain 1 S101Y Y107E	≥ 10	0.625
chain 1 G100V D106Q	≥ 10	0.639
chain 1 T28K V37L	0.143	1.01
chain 1 Y32F M34Q	≥ 10	0.502
chain 1 Y103F W108K	0.0171	0.318
chain 1 Y103F W108Q	0.00672	0.382
chain 1 G100K Y107V	≥ 10	0.3
chain 1 N35F	≥ 10	0.708
chain 1 N35E	≥ 10	0.802
chain 1 N35R	≥ 10	0.534
chain 1 N35V	≥ 10	0.596
chain 1 N35Y	≥ 10	0.697
chain 1 W33M	≥ 10	0.887
chain 1 S101L D106K	≥ 10	0.379

Variant	Kd (fluorescein) [µM]	yeast surface expression [1]
chain 1 S101N Y103C	≥ 10	0.438
chain 1 Y103W G104P	≥ 10	1
chain 1 D106L W108I	≥ 10	0.314
chain 1 W33E N35C	≥ 10	0.797
chain 1 G100L G104Q W108M	≥ 10	0.343
chain 1 T28D V37G	0.205	1.16
chain 1 Y102G G104H	≥ 10	1.06
chain 1 S30G W33V	≥ 10	1
chain 1 D106W G109K	≥ 10	0.167
chain 1 F29T Y32R	1.14	1.06
chain 1 S30F N35T W36P	≥ 10	1.41
chain 1 D106Y G109Q	≥ 10	0.171
chain 1 T28G N35C	≥ 10	0.586
chain 1 G100I S101E	≥ 10	0.652
chain 1 F29N W33P	≥ 10	0.333
chain 1 G100S Y102K	0.0335	0.868
chain 1 S30K N35I	≥ 10	0.879
chain 1 Y103L Y107D	≥ 10	0.471
chain 1 S101Y Y102W M105T	≥ 10	0.507
chain 1 D31V	≥ 10	0.515
chain 1 Y102D Y107K G109H	≥ 10	0.302
chain 1 Y102V M105H G109V	≥ 10	0.276
chain 1 G100T Y102H D106M	≥ 10	1.02
chain 1 G100E W108G G109H	≥ 10	0.242

Variant	Kd (fluorescein) [µM]	yeast surface expression [1]
chain 1 Y32K W33T	≥ 10	0.694
chain 1 Y103I W108S	≥ 10	0.397
chain 1 M34V W36N	≥ 10	0.502
chain 1 G104E Y107A	≥ 10	0.736
chain 1 S101D Y102F	≥ 10	0.93
chain 1 Y102A W108P	0.000504	0.525
chain 1 G100K D106S	≥ 10	0.303
chain 1 S30E W33Q	≥ 10	0.96
chain 1 M105S D106S	6.96	0.843
chain 1 M34A V37I	0.495	0.837
chain 1 S101G Y107K	≥ 10	0.907
chain 1 M105R W108L	0.000333	0.585
chain 1 G100Y S101E	≥ 10	0.708
chain 1 S101L G104S	≥ 10	0.326
chain 1 G100S S101D	≥ 10	0.892
chain 1 M105S Y107W	≥ 10	0.826
chain 1 Y107V G109E	≥ 10	0.339
chain 1 F29D S30K	≥ 10	0.968
chain 1 F29D S30A	≥ 10	0.941
chain 1 S30M V37M	0.000504	0.887
chain 1 T28F F29W V37K	≥ 10	0.532
chain 1 Y103G M105N	≥ 10	1.46
chain 1 W33Q N35E	≥ 10	0.594
chain 1 T28Y W36Q	≥ 10	0.297

Variant	Kd (fluorescein) [µM]	yeast surface expression [1]
chain 1 S101K G104W M105V	≥ 10	0.205
chain 1 F29P S30Q	0.0132	1.05
chain 1 D31T V37D	≥ 10	0.511
chain 1 Y32N M34G	≥ 10	0.608
chain 1 G104N Y107A	≥ 10	0.74
chain 1 G100H W108F	0.00746	0.392
chain 1 G104R Y107R	≥ 10	0.263
chain 1 G100Q D106H	≥ 10	0.182
chain 1 W33G V37Y	≥ 10	0.672
chain 1 F29Y Y32H	0.205	0.756
chain 1 D31E Y32M	8.13	0.789
chain 1 W36E	≥ 10	0.765
chain 1 W36V	≥ 10	0.715
chain 1 S30M N35M	≥ 10	0.654
chain 1 D31M W36A	≥ 10	1.72
chain 1 Y103E W108T	0.0171	1.01
chain 1 Y32Q M34G V37K	≥ 10	1.04
chain 1 G100P M105S G109M	≥ 10	0.234
chain 1 M105D	≥ 10	0.695
chain 1 M105G	≥ 10	0.761
chain 1 M105H	≥ 10	1.06
chain 1 G100W	≥ 10	0.491
chain 1 G100I	≥ 10	0.852
chain 1 S101V M105N	≥ 10	0.675

Variant	Kd (fluorescein) [µM]	yeast surface expression [1]
chain 1 Y103D G104Y	≥ 10	0.898
chain 1 S30G M34R	0.00199	–
chain 1 G100Q G104E	≥ 10	0.38
chain 1 G104I Y107N	≥ 10	0.247
chain 1 W33P M34H	≥ 10	0.508
chain 1 Y103T D106S	≥ 10	0.883
chain 1 Y32I W36P	0.0391	0.723
chain 1 S101I G104Q	≥ 10	0.397
chain 1 M34P V37L	≥ 10	1.01
chain 1 T28A D31L	0.00655	0.713
chain 1 D31M Y32S	≥ 10	0.804
chain 1 D106I G109C	≥ 10	0.203
chain 1 S30M Y32R	4.84	0.465
chain 1 T28N W33M	≥ 10	1.01
chain 1 S101T M105T	≥ 10	0.928
chain 1 M105A W108Q	≥ 10	0.38
chain 1 S101R D106N	≥ 10	0.225
chain 1 Y103W W108L	0.00166	0.629
chain 1 G100K G109V	≥ 10	0.188
chain 1 G100Y Y102T	≥ 10	0.662
